Measurements: article PMC8810855 (2022)

Key:
[1] = biological target: T1, Arp2/3 complex (bovine brain) (bovine, UniProt P61157 1-418; A7MB62 1-394; Q58CQ2 1-372; Q3MHR7 1-300; Q3T035 1-178; Q148J6 …); test: ITC; ATP; second, low-affinity site (Kd2)
[2] = biological target: T1, Arp2/3 complex (bovine brain); test: ITC; ATP; high-affinity site (Kd1)
[3] = biological target: T1, Arp2/3 complex (bovine brain); test: ITC; ATP

Kd [1] [nM]	Kd [2] [nM]	Kd [3] [nM]	Binder
826	36.7		Hybrid_WH2_C-helix (N-WASP WH2 domain and C-helix with linker and A domain of Arpin) (other) PVSCSGRDALLDQIRQGIQLKSVADGQESTPPTPAPTSGIVGALMEVMQKRSKAIAAAEIREQGDGAEDEEWDD
		1710	SWTDNIMAQKSSKGAAAEIREQGDGAEDEEWDD (domain or fragment) [Arpin_CA (Arpin residues S194-D226)]
